Data published in the supplement of paper PMC10567573.

B1: TRAF3IP2 (parent)
chain: KEHVPTWLQNTHVYSWPKNKKNIL
B2: NFE2L1 (parent)
chain: TLDGYGIHPKSIDLDNYFTARRLL

Variants of: B1
Assay: protein stability index of a GFP-peptide fusion (GPS, HEK-293T) (PSI 1-6); higher = more stable
Conditions: c terminus: a fixed tail appended
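Also: lentivirally expressed fusions sorted by FACS into six bins by GFP to DsRed ratio, PSI derived from sequencing read proportions per bin multiplied by bin number.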

Protein stability index, by site and new letter:
H3: C 2.42, S 2.58, P 3.67, R 2.21
Y14: M 2.76, F 2.05, T 3, P 2.98, A 3.14, R 2.73
W16: R 3.9, F 2.7, I 3.05, C 2.88, V 2.88, N 3.39, Q 3.36
W7: C 3.75, V 3.82, D 3.07, Y 2.88, F 2.82
L24: H 3.17, S 2.51, V 2.47, I 2.67, G 3.93, F 2.2
V4: P 2.85, D 3.29, N 3.44, A 2.39, H 2.25
H12: L 1.79, S 3.17, P 2.94, T 2.82, A 2.86, V 2.05, N 2.62
E2: V 2.15, S 2.53, Q 2.15
T6: Q 2.51
V13: Y 2.62, A 2.5, S 2.75, K 3.2, D 3.88
K21: E 2.68, N 1.93, F 1.8, T 2.65, W 1.97, Q 2.27, I 2.12, P 2.79
P5: G 2.38, L 1.73, N 2.26, K 1.9
N19: D 3.03, R 2.3, V 2.34
L8: C 3.02, E 3.88, Q 3.08, W 2.63, D 3.17, P 3.18
T11: I 2.55, W 2.3, R 2.54
N22: M 2.19
I23: L 2.68, C 3.02, Q 2.75, S 2.94
K20: M 1.58, Q 2.25, E 2.54, L 1.74, R 2.29, Y 1.81, S 2.64
N10: V 2.85, Y 2.6, F 2.09, M 2.25, I 1.79, P 2.64, K 2.04
K18: C 2.33, L 2.41, D 2.17
P17: Y 2.03, N 1.95, T 2.29, A 2.22
K1: P 1.97, G 3.22, V 2.78, M 2.33, N 3.12, Q 2.67, D 2.93
S15: K 2.77, M 2.23, L 2.22, C 2.15, H 2.27
Q9: T 2.8, R 1.97

Variants of: B2
Assay: as above
Conditions: c terminus: a fixed tail appended

Protein stability index of substitutions, site by site:
T1: A 2.49, C 1.92, D 1.92, E 1.54, F 1.3, G 1.46, H 1.69, I 1.36, K 1.52, L 1.57, M 1.77, N 1.61, P 2.37, Q 1.99, R 1.66, S 1.82, V 1.55, W 3.41, Y 2.32
L2: A 1.58, C 2.75, D 2.15, E 2.05, F 1.97, G 1.86, H 1.92, I 2.61, K 2.19, M 2.04, N 2.06, P 2.68, Q 1.66, R 1.92, S 1.7, T 2.23, V 1.74, W 2.37, Y 1.74
D3: A 2.61, C 1.77, E 2.14, F 3.12, G 1.65, H 1.25, I 2.06, K 2.34, L 2.58, M 2.07, N 2.33, P 1.62, Q 1.79, R 2.33, S 1.71, T 1.61, V 1.62, W 1.47, Y 2.25
G4: A 1.73, C 1.43, D 2.57, E 1.47, F 1.46, H 1.62, I 1.65, K 1.53, L 1.27, M 2.09, N 2.03, P 1.63, Q 1.75, R 1.95, S 2.13, T 1.55, V 1.22, W 1.91, Y 1.5
Y5: A 2.67, C 2.01, D 2.8, E 2.21, F 1.89, G 2.43, H 2.12, I 2.21, K 1.85, L 2.3, M 2.5, N 2.25, P 2.13, Q 1.48, R 1.76, S 2.05, T 2.13, V 2.42, W 1.97
G6: A 2.26, C 1.48, D 1.54, E 2.02, F 2.69, H 1.97, I 1.58, K 1.91, L 1.59, M 1.83, N 2.21, P 1.76, Q 1.94, R 1.87, S 1.62, T 1.83, V 2.25, W 1.54, Y 1.71
I7: A 2.01, C 2.4, D 2.4, E 2.27, F 1.62, G 1.92, H 2.85, K 1.75, L 1.7, M 1.75, N 2.1, P 2.12, Q 2.35, R 2.04, S 1.91, T 1.78, V 1.68, W 1.67, Y 1.9
H8: A 2.22, C 1.87, D 2.02, E 2.42, F 1.95, G 1.75, I 1.98, K 2.07, L 1.67, M 1.82, N 1.78, P 1.94, Q 1.79, R 1.55, S 1.81, T 2.05, V 2.28, W 1.66, Y 1.72
P9: A 1.68, C 1.62, D 1.88, E 1.97, F 1.55, G 1.91, H 2.14, I 2.39, K 2.24, L 2.7, M 2.05, N 2.66, Q 2.08, R 2.22, S 1.71, T 1.95, V 1.5, W 2.16, Y 1.68
K10: A 1.79, C 2.54, D 2.37, E 1.65, F 1.87, G 1.93, H 2.2, I 1.94, L 2.01, M 1.88, N 2.44, P 1.73, Q 2.12, R 2.11, S 2.22, T 1.94, V 1.5, W 2.24, Y 1.39
S11: A 1.49, C 1.98, D 2.38, E 2.28, F 2.29, G 1.91, H 1.89, I 1.4, K 2.58, L 2, M 1.57, N 2.19, P 2.04, Q 1.89, R 1.97, T 1.97, V 2.49, W 1.67, Y 1.67
I12: A 1.89, C 2.18, D 3.05, E 2.99, F 2.02, G 2.43, H 2.24, K 1.85, L 1.66, M 1.75, N 1.93, P 3.06
